B1: Construct 18 (mAb426) (antibody, IgG4, V domains shown)
VH: EVQLVESGGGLEQPGGSLRLSCAGSGFTFRDFAMTWVRQAPGKGLEWVSSISGSGDNTYYADSVKGRFTISRDNSKNTLYLQMNSLRAEDTAVYYCAKDRLSKTIRPRYYGLDVWGQGTTVTVSS
VL: DIVMTQSPLSLPVTPGEPASISCTSSQSLLYSIGKNYVDWYLQKSGQSPQLLIYLGNKRASGVPDRFSGSGSGTDFTLKISRVEAEDVGFYYCMQSLTSPYTFGQGTKLEIK
notes: VH/VL only
B2: Construct 19 (mAb427) (antibody, IgG4, V domains shown)
VH: EVQLVESGGGLEQPGGSLRLSCAGSGFTFRTYAMTWVRQAPGKGLEWVSSISGSGDNTYYADSVKGRFTISRDNSKNTLYLQMNSLRAEDTAVYYCAKDRVSITIRPRYYGLDVWGQGTTVTVSS
VL: DIVMTQSPLSLPVTPGEPASISCTSSQSLLYSIGYNYVDWYLQKSGQSPQLLIYLGNKRASGVPDRFSGSGSGTDFTLKISRVEAEDVGFYYCMQALGSPYTFGQGTKLEIK
notes: VH/VL only
B3: Construct 22 (mAb430) (antibody, IgG4, V domains shown)
VH: EVQLVESGGGLEQPGGSLRLSCAGSGFTFRDFAMTWVRQAPGKGLEWVSSISGSGSSTYYADSVKGRFTISRDNSKNTLYLQMNSLRAEDTAVYYCAKDRLSVTVRPRYYGLDVWGQGTTVTVSS
VL: DIVMTQSPLSLPVTPGEPASISCRSSQSVLYSIGYNYVDWYLQKSGQSPQLLIYLGNKRASGVPDRFSGSGSGTDFTLKISRVEAEDVGFYYCMQSLTSPYTFGQGTKLEIK
notes: VH/VL only

Experiments:
human IL-4Rα = molecular target: T1, human IL-4Rα (human, UniProt P24394 26-232); test: SPR, Carterra LSA;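 also: antibodies captured on an anti-human Fc sensor chip, antigen injected at several concentrations, association and dissociation rates fitted with a 1:1 Langmuir model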
T1 construct: also called Hu IL-4Rα; hIL-4Rα
T1 sequence: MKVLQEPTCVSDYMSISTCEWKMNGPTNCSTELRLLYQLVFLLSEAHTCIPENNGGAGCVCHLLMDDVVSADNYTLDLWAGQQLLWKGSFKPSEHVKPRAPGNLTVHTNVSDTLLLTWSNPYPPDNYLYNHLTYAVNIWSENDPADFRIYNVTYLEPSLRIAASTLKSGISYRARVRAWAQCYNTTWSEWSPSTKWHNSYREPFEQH

cynomolgus monkey IL-4Rα = molecular target: T2, cynomolgus monkey IL-4Rα (cynomolgus monkey, UniProt P24394 26-231 (human entry), limits assumed); test: SPR, Carterra LSA;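 also: antibodies captured on an anti-human Fc sensor chip, antigen injected at several concentrations, association and dissociation rates fitted with a 1:1 Langmuir model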
T2 construct: also called Cyno IL-4Rα; cyIL-4Rα
T2 chain: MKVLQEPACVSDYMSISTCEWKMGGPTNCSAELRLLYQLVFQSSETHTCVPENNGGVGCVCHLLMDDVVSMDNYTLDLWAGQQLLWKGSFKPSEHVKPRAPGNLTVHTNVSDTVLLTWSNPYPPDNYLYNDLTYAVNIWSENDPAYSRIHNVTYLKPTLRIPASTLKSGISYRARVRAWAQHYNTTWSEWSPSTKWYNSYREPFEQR

hIL-4Rα on cells [1] = molecular target: T3, hIL-4Rα on cells (human, UniProt P24394 26-825); test: cell-based or functional assay
T3 sequence: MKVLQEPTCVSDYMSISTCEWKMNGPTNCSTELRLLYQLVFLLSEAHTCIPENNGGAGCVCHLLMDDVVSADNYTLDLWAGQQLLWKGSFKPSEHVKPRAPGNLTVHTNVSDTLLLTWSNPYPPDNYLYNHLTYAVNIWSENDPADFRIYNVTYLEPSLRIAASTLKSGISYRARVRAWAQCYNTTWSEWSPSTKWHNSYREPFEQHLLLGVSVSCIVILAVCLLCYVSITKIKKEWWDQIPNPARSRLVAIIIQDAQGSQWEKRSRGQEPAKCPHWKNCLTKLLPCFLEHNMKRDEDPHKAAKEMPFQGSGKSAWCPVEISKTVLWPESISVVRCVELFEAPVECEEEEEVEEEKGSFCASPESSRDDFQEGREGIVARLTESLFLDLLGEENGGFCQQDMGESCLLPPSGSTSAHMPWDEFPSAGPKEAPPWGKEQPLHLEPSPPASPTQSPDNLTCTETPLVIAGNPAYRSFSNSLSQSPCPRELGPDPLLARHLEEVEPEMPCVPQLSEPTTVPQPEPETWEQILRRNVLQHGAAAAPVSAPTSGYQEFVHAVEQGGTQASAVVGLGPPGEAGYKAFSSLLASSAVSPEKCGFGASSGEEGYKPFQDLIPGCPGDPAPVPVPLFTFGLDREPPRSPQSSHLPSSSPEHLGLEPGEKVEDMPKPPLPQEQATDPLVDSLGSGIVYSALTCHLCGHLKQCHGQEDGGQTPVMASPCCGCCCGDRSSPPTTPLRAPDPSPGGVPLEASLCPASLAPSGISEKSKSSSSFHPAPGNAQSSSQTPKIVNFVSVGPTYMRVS

hIL-4Rα on cells [2] = molecular target: T3, hIL-4Rα on cells; test: cell-based or functional assay; remark: listed apart in the source
hIL-4Rα on cells [3] = molecular target: T3, hIL-4Rα on cells; test: cell-based or functional assay; remark: listed apart in the source
hIL-4Rα on cells [4] = molecular target: T3, hIL-4Rα on cells; test: FACS on HEK293 cells, competitor biotin-hIL-4;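 also: HEK293 cells stably co-expressing hIL-13Rα and hIL-4Rα, stained for 1 h at 4 °C, read-out as mean fluorescence intensity by flow cytometry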
Procedure: Briefly, HEK293 previously transduced to stably express both hIL-13Rα and hIL-4Rα were cultured and harvested. Cells were seeded at 200,000 cells in 100 uL per well. Cells were washed and the supernatant discarded. […] The cells were stained in this mixture at 4° C. for 1 hour. […] Cells were incubated 4° C. for 1 hour, protected from light. Cells were then washed and the MFI of cells in each well were recorded by FACS using a BD FACSCanto II. Subsequent data were analyzed using GraphPad Prism.

hIL-4Rα on cells [5] = molecular target: T3, hIL-4Rα on cells; test: FACS on HEK293 cells, competitor biotin-hIL-13;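 also: stably transduced cells co-expressing both receptor chains, stained cold, with cell-bound signal read as mean fluorescence intensity by flow cytometry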

Row | Binder | KD Relative to Dupilumab (human IL-4Rα) | Kd (human IL-4Rα) [nM] | KD Relative to Dupilumab (cynomolgus monkey IL-4Rα) | Kd (cynomolgus monkey IL-4Rα) [nM] | Relative Inhibition of IL-4 induced pSTAT6 IC50 (hIL-4Rα on cells [1]) | Relative Inhibition of IL-13 induced pSTAT6 IC50 (hIL-4Rα on cells [1]) | Relative Inhibition of IL-4 induced TARC IC50 (hIL-4Rα on cells [2]) | Relative Inhibition of IL-13 induced TARC IC50 (hIL-4Rα on cells [2]) | Relative Inhibition of IL-4 induced TF-1 Proliferation IC50 (hIL-4Rα on cells [3]) | Relative Inhibition of IL-13 induced TF-1 Proliferation IC50 (hIL-4Rα on cells [3]) | Relative Blockade of IL-4 Binding IC50 (hIL-4Rα on cells [4]) | Relative Blockade of IL-13 Binding IC50 (hIL-4Rα on cells [5])
1 | B1 | 2.65 | 0.03 | 0.09 | 58 | 0.517 relative to dupilumab | 0.446 relative to dupilumab | 0.407 relative to dupilumab | 0.447 relative to dupilumab | 0.626 relative to dupilumab | 0.606 relative to dupilumab | 0.85 relative to dupilumab | 0.813 relative to dupilumab
2 | B2 | 3.19 | 0.036 | 0.08 | 50.2 | 0.844 relative to dupilumab | 0.885 relative to dupilumab | 0.756 relative to dupilumab | 0.834 relative to dupilumab | 0.835 relative to dupilumab | 0.55 relative to dupilumab | 0.867 relative to dupilumab | 1.02 relative to dupilumab
3 | B3 | 0.77 | 0.00866 | 0.05 | 28.7 | 0.749 relative to dupilumab | 0.612 relative to dupilumab | 0.488 relative to dupilumab | 0.535 relative to dupilumab | 0.746 relative to dupilumab | 0.495 relative to dupilumab | 0.829 relative to dupilumab | 0.785 relative to dupilumab
